Bridge positions count the residues as written; N and C are the ends. Ends that are not written are not given here. I, II: the chains in the order shown.

The text below walks through data of patent US20050130898A1 (HIDECHIKA OKADA, published 2005).

Data set [1] deals with T1, CPI-2KR (linear 9-mer peptide Cys-Lys-Pro-Ala-Lys-Asn-Ala-Arg-Cys).
T1 chain: CKPAKNARC

Data set [2] has as its target T2, Carboxypeptidase R (CPR) (human, UniProt Q96IY4 115-423).
T2 sequence (looked up): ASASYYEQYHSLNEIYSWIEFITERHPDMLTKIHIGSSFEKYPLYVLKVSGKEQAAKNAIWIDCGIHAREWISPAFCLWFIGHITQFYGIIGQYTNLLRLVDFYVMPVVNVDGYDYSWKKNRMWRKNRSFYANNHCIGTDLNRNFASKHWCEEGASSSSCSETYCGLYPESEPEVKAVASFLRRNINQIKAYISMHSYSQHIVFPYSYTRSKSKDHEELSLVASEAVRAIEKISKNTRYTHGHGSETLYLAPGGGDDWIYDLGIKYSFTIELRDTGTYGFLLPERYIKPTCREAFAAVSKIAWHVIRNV
Description: cell-based or functional assay.

Data set [3] concerns the target T2, Carboxypeptidase R (CPR). Description: enzyme kinetics, CPR hydrolysis of hippuryl-L-arginine, competitive inhibition. As to the method: (§1) The reduced inhibitory activity of this PCI-derived peptide may be attributed to the absence of two of the three disulfide bridges founds in wild type PCI, effectively resulting in increased mobility of all residues.
(§2) The activity of the CPR inhibitors was determined against purified CPR using hippuryl-L-arginine as the substrate. The peptides PCI-2K-R, CPI-2KR, PCI (500, 250/125/62.5, 50 mg/ml, respectively) or Tris-HCl buffer (50 mM; pH 7.5) were added to active CPR (40-320 mg/ml) at a 1:7 ratio. After thorough mixing, […] was incubated with various concentrations of hippuryl-L-arginine (1.2-6.0 mM), for 15 minutes at 37° C. The reaction was stopped with the addition of sodium phosphate buffer ([…]; 0.25 M), immediately followed by 3% cyanuric chloride in 1,4-dioxane ([…]). After mixing well, the generation of hippuric acid was determined by measuring the OD at 405 nm on a SpectraMAX 250 Microplate Spectrophotometer (Molecular Device Corporation, Sunnyvale, Calif., USA). Hippuric acid (0-2.0 mM) in Tris buffer was used as the standard.
(§3) A kinetics analysis of the CPR-catalysed hydrolysis of hippuryl-L-arginine in the absence and presence of inhibitory molecules was performed. The Lineweaver-Burk reciprocal plot, based on rearrangement of the Henri-Michaelis-Menten equation into a linear form, was applied: […]

The target in data set [4] is T2, Carboxypeptidase R (CPR). The data set can be described thus: enzyme kinetics, Ki against that of PCI. As to the method:
as §1, §2, §3

Data set [5] deals with T2, Carboxypeptidase R (CPR). Description: enzyme kinetics, Ki against that of PCI-2K-R. On the procedure: (§4) In order to gain insight into the inhibitory mechanism of CPI-2KR against CPR, a classical Henri-Michaelis-Menten kinetics analysis was performed. Since the Lineweaver-Burke plot (FIG. 3C) is prone to error, particularly at low concentrations of inhibitor and substrate, the Dixon plot (1/v versus [I]) was employed to evaluate the inhibitory mechanism of CPI-2KR (FIG. 3D). Replotting of the slopes of the Dixon plot against 1/[S] confirmed that CPR-2KR is a competitive inhibitor of CPR given that the line went through the origin (FIG. 3D insert). The Km Kmₐₚₚ and Vmax were determined from the data obtained for no inhibitor and the highest inhibitor concentration (253 nM) from the Lineweaver-Burke plots (FIG. 3E) . These values were in turn used to calculate the dissociation constant of CPI-2KR (Ki).
(§5) The activity of the CPR inhibitors was determined against purified CPR using hippuryl-L-arginine as the substrate. The peptides PCI-2K-R, CPI-2KR, PCI (500, 250/125/62.5, 50 mg/ml, respectively) or Tris-HCl buffer (50 mM; pH 7.5) were added to active CPR (40-320 mg/ml) at a 1:7 ratio. […] After mixing well, the generation of hippuric acid was determined by measuring the OD at 405 nm on a SpectraMAX 250 Microplate Spectrophotometer (Molecular Device Corporation, Sunnyvale, Calif., USA). […]

Data set [6] addresses T2, Carboxypeptidase R (CPR). Description: enzyme kinetics, CPR hydrolysis of hippuryl-L-arginine, Lineweaver-Burke at 253 nM inhibitor. On the procedure: as §4, §5

B1: Carboxypeptidase N (CPN) (protein)
chain 1: CPMGCDCFVQEVFCSDEELATVPLDIPPYTKNIIFVETSFTTLETRAFGSNPNLTKVVFLNTQLCQFRPDAFGGLPRLEDLEVTGSSFLNLSTNIFSNLTSLGKLTLNFNMLEALPEGLFQHLAALESLHLQGNQLQALPRRLFQPLTHLKTLNLAQNLLAQLPEELFHPLTSLQTLKLSNNALSGLPQGVFGKLGSLQELFLDSNNISELPPQVFSQLFCLERLWLQRNAITHLPLSIFASLGNLTFLSLQWNMLRVLPAGLFAHTPCLVGLSLTHNQLETVAEGTFAHLSNLRSLMLSYNAITHLPAGIFRDLEELVKLYLGSNNLTALHPALFQNLSKLELLSLSKNQLTTLPEGIFDTNYNLFNLALHGNPWQCDCHLAYLFNWLQQYTDRLLNIQTYCAGPAYLKGQVVPALNEKQLVCPVTRDHLGFQVTWPDESKAGGSWDLAVQERAARSQCTYSNPEGTVVLACDQAQCRWLNVQLSPQQGSLGLQYNASQEWDLRSSCGSLRLTVSIEARAAGP
chain 2: VTFRHHRYDDLVRTLYKVQNECPGITRVYSIGRSVEGRHLYVLEFSDHPGIHEPLEPEVKYVGNMHGNEALGRELMLQLSEFLCEEFRNRNQRIVQLIQDTRIHILPSMNPDGYEVAAAQGPNKPGYLVGRNNANGVDLNRNFPDLNTYIYYNEKYGGPNHHLPLPDNWKSQVEPETRAVIRWMHSFNFVLSANLHGGAVVANYPYDKSFEHRVRGVRRTASTPTPDDKLFQKLAKVYSYAHGWMFQGWNCGDYFPDGITNGASWYSLSKGMQDFNYLHTNCFEITLELSCDKFPPEEELQREWLGNREALIQFLEQVHQGIKGMVLDENYNNLANAVISVSGINHDVTSGDHGDYFRLLLPGIYTVSATAPGYDPETVTVTVGPAEPTLVNFHLKRSIPQVSPVRRAPSRRHGVRAKVQPQARKKEMEMRQLQRGPA
In the case of B1, the “CPN-catalysed hydrolysis of hippuryl-L-arginine” value in data set [1] was “CPI-2KR did not exhibit any inhibitory activity against CPN at 506 nM”.

B2: potato carboxypeptidase inhibitor (PCI) (other, UniProt P01075 1-39, looked up)
chain: QQHADPICNKPCKTHDDCSGAWFCQACWNSARTCGPYVG
modifications: disulfide 12-27, 18-34, 8-24
notes: mature
Turning to B2, in data set [2], the “reversal of TM-induced suppression of t-PA-induced fibrinolysis in human plasma” value is 12 nM. For the same molecule, in data set [3], the Ki (as a rule, a measure of affinity in units of concentration, obtained from inhibition or displacement) came to 1.4 nM.

B3: CPI-2KR (linear 9-mer peptide Cys-Lys-Pro-Ala-Lys-Asn-Ala-Arg-Cys) (peptide)
peptide: CKPAKNARC-NH2
modifications: cysteine pairing not given here
notes: Linear form, no disulfide between the terminal Cys residues
Regarding B3, in data set [2], the “effective inhibitory concentration relative to PCI (fold)” value worked out at 10 fold and the “effective inhibitory concentration, TM-induced retardation of t-PA-induced fibrinolysis” value is 126 nM. The “fold higher Ki than that of PCI” value in data set [4] came out at 6 fold. In addition, the “fold stronger binding affinity than PCI-2K-R” value in data set [5] was around 46 fold. Moreover, the Ki in data set [6] is 8.8 nM.

B4: Carboxypeptidase R (CPR) (protein)
chain: T2 sequence (looked up)
On to B4, for which, in data set [1], the “Dixon plot and slope replot, CPR-catalysed hydrolysis of hippuryl-L-arginine” value is recorded as “confirmed that CPR-2KR is a competitive inhibitor of CPR”.

B5: PCI-2K-R (heterodimer of PCI-2K and PCI-R joined by a disulfide bond) (peptide)
chain 1: NKPCKTHDD-NH2
chain 2: QACWNSART-NH2
modifications: disulfide I:4-II:3; N-terminus assumed
SMILES: C[C@H](NC(=O)[C@H](CO)NC(=O)[C@H](CC(N)=O)NC(=O)[C@H](Cc1c[nH]c2ccccc12)NC(=O)[C@H](CSSC[C@H](NC(=O)[C@@H]1CCCN1C(=O)[C@H](CCCCN)NC(=O)[C@@H](N)CC(N)=O)C(=O)N[C@@H](CCCCN)C(=O)N[C@H](C(=O)N[C@@H](Cc1c[nH]cn1)C(=O)N[C@@H](CC(=O)O)C(=O)N[C@@H](CC(=O)O)C(N)=O)[C@@H](C)O)NC(=O)[C@H](C)NC(=O)[C@@H](N)CCC(N)=O)C(=O)N[C@@H](CCCNC(=N)N)C(=O)N[C@H](C(N)=O)[C@@H](C)O
notes: also called CPI-2K-R (label in claim 5)
B5: the “fold lower inhibitory activity compared to PCI” value in data set [4] was 290 fold. Further, affinity in data set [3] was put at a Ki of 407 nM.
